Source: patent publication US20210163599A1

Experiments:
[1] = target: huPD-L1-Fc (R&D Systems) (human) (UniProt Q9NZQ7); assay: competition ELISA: hu PD-1-Fc coated, huPD-L1-Fc preincubated with the antibody
[2] = target: huPD-L1-Fc (R&D Systems) (human) (UniProt Q9NZQ7); assay: competition ELISA: hu CD80-Fc coated, 1.6 nM huPD-L1-Fc preincubated with the antibody
[3] = target: huPD-L1-Fc (R&D Systems) (human) (UniProt Q9NZQ7); assay: Biacore, ligand rhPD-L1-Fc, Affimer as analyte

huPD-L1-Fc (R&D Systems) (human), sequence (Q9NZQ7 19-239 limits assumed): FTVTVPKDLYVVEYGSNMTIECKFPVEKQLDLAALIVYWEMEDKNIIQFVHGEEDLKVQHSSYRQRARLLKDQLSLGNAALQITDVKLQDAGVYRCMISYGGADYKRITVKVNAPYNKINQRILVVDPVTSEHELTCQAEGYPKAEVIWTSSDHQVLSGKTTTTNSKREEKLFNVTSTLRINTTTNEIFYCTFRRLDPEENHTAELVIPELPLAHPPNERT

IC50 [1] [nM]	IC50 [2] [nM]	koff [3] [s⁻¹]	kon [3] [M⁻¹ s⁻¹]	Binder
0.18	0.31			mAb anti huPD-L1 29E.2A3 (Biolegend) (antibody, from another filing, V domains shown) VH: EVQLQQSGPELVKPGASVKMSCKASGYTFTSYVMHWVKQKPGQGLEWIGYVNPFNDGTKYNEMFKGKATLTSDKSSSTAYMELSSLTSEDSAVYYCARQAWGYPWGQGTLVTVSA VL: DIVLTQSPASLAVSLGQRATISCRATESVEYYGTSLVQWYQQKPGQPPKLLIYAASSVDSGVPARFSGSGSGTDFSLTIHPVEEDDIAMYFCQQSRRVPYTFGGGTKLEIK
		0.00129	752000	AVA04-251 BH (designed binder, from a related filing) MIPRGLSEAKPATPEIQEIVDKVKPQLEEKTNETYGKLEAVQYKTQVLAREGRQDWVLSTNYYIKVRAGDNKYMHLKVFNGPWVPFPHQQLADRVLTGYQVDKNKDDELTGFAEAAAKEAAAKEAAAKEAAAKEAAAKEAAAKMIPRGLSEAKPATPEIQEIVDKVKPQLEEKTNETYGKLEAVQYKTQVLAREGRQDWVLSTNYYIKVRAGDNKYMHLKVFNGPWVPFPHQQLADRVLTGYQVDKNKDDELTGFHHHHHH
